US20190142971A1, “FORMULATION AND DELIVERY OF MODIFIED NUCLEOSIDE, NUCLEOTIDE, AND NUCLEIC ACID COMPOSITIONS” (ModernaTX, Inc., priority 2013, published 2019)

Experiments:
mice = assay: Example 48: split dose study EPO mmRNA IM in mice, serum EPO, dose splitting factor (Table 79); type: in vivo
Method: The dosing vehicle (F. buffer) consisted of 150 mM NaCl, 2 mM CaCl2), 2 mM Natphosphate (1.4 mM monobasic sodium phosphate; 0.6 mM dibasic sodium phosphate), and 0.5 mM EDTA, pH 6.5. The pH was adjusted using sodium hydroxide and the final solution was filter sterilized.
Animals (n=5) were injected IM (intramuscular) for the single unit dose of 100 ug. For multi-dosing, two schedules were used, 3 doses of 100 ug and 6 doses of 100 ug. For the split dosing scheme, two schedules were used, 3 doses at 33.3 ug and 6 doses of 16.5 ug mmRNA. Control dosing involved use of buffer only at 6 doses. […] Blood and muscle tissue were evaluated 13 hrs post injection.
Human EPO protein was measured in mouse serum 13 h post I.M. single, multi- or split dosing of the EPO mmRNA in buffer. Seven groups of mice (n=5 mice per group) were treated and evaluated.
The splitting factor is defined as the product per unit drug divided by the single dose product per unit drug (PUD). For example for treatment group 2 the value 0.28 or product (EPO) per unit drug (mmRNA) is divided by the single dose product per unit drug of 0.14. The result is 2. Likewise, for treatment group 4, the value 1.1 or product (EPO) per unit drug (mmRNA) is divided by the single dose product per unit drug of 0.14. The result is 7.9. Consequently, the dose splitting factor (DSF) may be used as an indicator of the efficacy of a split dose regimen. For any single administration of a total daily dose, the DSF should be equal to 1. Therefore any DSF greater than this value in a split dose regimen is an indication of increased efficacy.

C57BL/6 = assay: Example 115: human EPO mRNA electroporation multi-dose, serum EPO (Table 185); type: in vivo, mice; settings: human EPO mRNA in PBS, IM 0.2 mg/kg per dose with EP
Method: Serum was collected from the mice at 24 hours post the first, second, third and fourth doses.

B1: EPO: modified mRNA encoding human erythropoietin, SEQ ID NO: 7, Cap1, fully modified with 5-methylcytosine and pseudouridine; LNP NPA-060-1 in Examples 17-22 (nucleic acid)
chain: GGGAAAUAAGAGAGAAAAGAAGAGUAAGAAGAAAUAUAAGAGCCACCAUGGGAGUGCACGAGUGUCCCGCGUGGUUGUGGUUGCUGCUGUCGCUCUUGAGCCUCCCACUGGGACUGCCUGUGCUGGGGGCACCACCCAGAUUGAUCUGCGACUCACGGGUACUUGAGAGGUACCUUCUUGAAGCCAAAGAAGCCGAAAACAUCACAACCGGAUGCGCCGAGCACUGCUCCCUCAAUGAGAACAUUACUGUACCGGAUACAAAGGUCAAUUUCUAUGCAUGGAAGAGAAUGGAAGUAGGACAGCAGGCCGUCGAAGUGUGGCAGGGGCUCGCGCUUUUGUCGGAGGCGGUGUUGCGGGGUCAGGCCCUCCUCGUCAACUCAUCACAGCCGUGGGAGCCCCUCCAACUUCAUGUCGAUAAAGCGGUGUCGGGGCUCCGCAGCUUGACGACGUUGCUUCGGGCUCUGGGCGCACAAAAGGAGGCUAUUUCGCCGCCUGACGCGGCCUCCGCGGCACCCCUCCGAACGAUCACCGCGGACACGUUUAGGAAGCUUUUUAGAGUGUACAGCAAUUUCCUCCGCGGAAAGCUGAAAUUGUAUACUGGUGAAGCGUGUAGGACAGGGGAUCGCUGAUAAGCUGCCUUCUGCGGGGCUUGCCUUCUGGCCAUGCCCUUCUUCUCUCCCUUGCACCUGUACCUCUUGGUCUUUGAAUAAAGCCUGAGUAGGAAG
modifications: Cap1, 5-methylcytosine, pseudouridine
product (EPO) per unit drug (mmRNA) (mice; single dose): 0.14 | dose splitting factor (DSF) (mice; treatment group 2): 2 | product (EPO) per unit drug (mmRNA) (mice; treatment group 2): 0.28 | dose splitting factor (DSF) (mice; treatment group 4): 7.9 | product (EPO) per unit drug (mmRNA) (mice; treatment group 4): 1.1 | First Dose EPO (C57BL/6; serum 24 hours post first dose): 9.5 pg/mL | Fourth Dose EPO (C57BL/6; serum 24 hours post fourth dose): 139.9 pg/mL | Second Dose EPO (C57BL/6; serum 24 hours post second dose): 27.9 pg/mL | Third Dose EPO (C57BL/6; serum 24 hours post third dose): 284.5 pg/mL
